Laboratory results: publication PMC3507683, “Crystal Structure of the Hexachlorocyclohexane Dehydrochlorinase (LinA-Type2): Mutational Analysis, Thermostability and Enantioselectivity” (PLoS ONE, 2012)

Target: the molecule itself
Assay: crystal structure; hanging drop, 293 K, 0.1 M trisodium citrate pH 5.5, 3% PEG 3350; space group P6(3)22; seven subunits in the asymmetric unit; 3.5 Å

B1: Hexachlorocyclohexane dehydrochlorinase LinA-type2 (enzyme, UniProt P51697 1-156, looked up)
chain: MSDLDRLASRAAIQDLYSDQLIGVDKRQEGRLASIWWDDAEWTIEGIGTYKGPEGALDLANNVLWPMYHETIHYGTNLRLEFVSADKVNGIGDVLCLGNLVEGNQSILIAAVYTNEYERRDGVWKFSKLNGCMNYFTPLAGIHFAPPGIHFAPSGA
notes: LinA-type2, gamma-hexachlorocyclohexane dehydrochlorinase variant obtained by PCR from metagenomic DNA of an HCH-contaminated soil (GenBank EU863871); It differs by 10 residues from LinA-type1 (= LinA-UT26 of Sphingobium japonicum UT26, 156 amino acids); The printed primers run from the ATG start codon to the last codon, without a stop codon; Homotrimer; also called -type2 protein; source: E. …
How did the “stoichiometry N” value turn out when B1 was run?
The value was 3.
